# Experimental data reported in the nanobody polyreactivity screen of Harvey et al. (2022).
# Test: yeast display, Sf9 membrane polyspecificity reagent, FACS + sequencing; frameworks hold sequencing errors
# Method in brief: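 Genes from sorted yeast were amplified by colony PCR, read by MiSeq 2 × 250 sequencing and filtered on CDR length. These cells carried a synthetic nanobody library in Saccharomyces cerevisiae BJ5465 and were sorted by FACS into low and high (top ~1%) gates on anti-HA and streptavidin fluorescence. Polyreactivity is labelled according to the gate of origin.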
row,Sequence,polyreactivity (PSR sort gate)
1,QHQLVESGGGLVQAGGSLRLSCAASGRTFHRNAKGWYRQAPWQERELVAAITGSGGSTYYADSVKGRFTISRDNAKNTVYLQMYSLKPEDTAVYYCATYSYPERTGGQRTHYYWGQGTQVTVSS,high polyreactivity
2,QVQLVESGGGLVQAGGSLRLSCAASGSTFFSNTMGWYRQAPGKERELVAAITDSGTSTYYADSVKGRFTISRDNAKNTVYLQMNSLKPEDTAVYYCAAYPSGWYDYWGQGTLVTVSS,low polyreactivity
3,QVQLVESWGGLVQAGGTLRLSCAASGSTFTLNCMGWYRQAPGKERELVASITWSGGSTYYADSVKGRFTISRDNAKNTVYLQMNSLKPEDTAVYYCADDEKLYITGYDYWGQGTQVTVSS,low polyreactivity
4,QVQLVESGGGLVQGGGSLRLSCAASGSIFYPYAMGWYRQAPGKERELVARITSSTGSTYYADSVKGRCTISRATAKNTVYLQMTSLKPEDTAVYYCNARRQRNKSYNYWGQGTQVTVSS,high polyreactivity
5,QVQLVESGGGLVQAGGSLRLSCAACGITFLSNAMGWYRQAPGKERELVAAITTSGGTTYADSVKGRFTISRDNAKNTVYLQMNSLKPEDTAVYYCNAVGYTPRKPSKFDYWGQGTQVTVSS,low polyreactivity
6,QVQLVESGGGLVQAGGSLRLSCAASGSIFFDGNAMGWYRQAPGKERELVAAISVSGGSTYYADSVKGRFTISRDNAKNTVYLQMNSVKPEDTAVYYCAKYPSKSYVPGDYWGQGTQVTVSS,low polyreactivity
7,QVQLVESGGRLVQAGGSLRLSCAASGITFTAYAMGWYRPAPGKERELVATINSTGITNYADSVKGRFTISRDNAKNTVYLQMNSLKPEDTAVYYCAADLLDISSYDGMDYWGQGTQVTVSS,low polyreactivity
8,LVQLVESGVGLVHAGRSLRLSCAASGSIFPYYTMGWYRPAPGKERELVAAISGSGGSTYYADSVKGRFTISRDNAKNTVYLQMNSLKPEYTAVYYCAAYRRTWFDYWGQGTQVTVSS,high polyreactivity
9,QVQLVESGGGLVQAGGSLRLSCAASGFTFAGYAMGWYRQAPGKERELVAGIRSSGARTYYADTVKGRFTISRDNAKNTVYFQLKSLKPDDTAVYYCAKTDGFYGGYGYWGQGTQVTVSS,low polyreactivity
10,QVQLVESGGGLVQAGGSLRLSCAASGFSFTRYAMGWYRQAPGKERELVAAIYIGGSTYYADSVKGRFTISRDNAKNTVYFQMNSQKPEDTAVYYCAVDYRHSSSWNAGPWEMYYWGQGTKVTVSS,low polyreactivity
11,QVQLVESGGGLVQAGGSLRLSCAASGSIFKINTMGWYRQAPRQERELVAAISKRGGSTYYADSVKGRFTISRDNAKITVYLQMNSLKPDDTAVYYCAAREFYKYYYWGQVTQVTVSS,high polyreactivity
12,HVQLVESGGGLVQAGGSLRISCAASGRTFYKNAKGRYRQAPGKEREFVASISVSGGRTYYADSVKGRFTISRDNAKNTVYLQMNILNPEDSAVYYCNARASPLSQRDYWGQGTQVTVSS,low polyreactivity
13,QVQLVESGGGLVQAGGSLRLSCASSGRTFTKYAMGWYRHPPGKESELVAAISRSGGSTYYADSVKGRFTISRDNAKNTVYLQMNSLKPEDTAVYYWAARGQYRYSFGDYSWGQGTQVTVSS,high polyreactivity
14,QVQLVESGGGLVQAGGSLRLSCAASGRSFDRYAMGWYRQAPGKERELVAGITASGGSTYYADSVKGRFTISRDNAKNTVYLQMNSLKPEDTAVYYCAVVYGYRYYYWGQGTQVTVSS,high polyreactivity
15,QVQRVESGGGLVQAGGSLRLSCAASGFTFDRYAMGWYRQAPGKERELVAAISRSGGSTHYADSVKGRFTISRDNAKNTVYLQMNSLKPEDTAVYYCAKVYAPITALYFPTDRGDYCGQGTQVTVSS,high polyreactivity
16,QVQLVESGGGLVQAGGSLRLSCAASGSIFFYYAMGWYRQATGKERELVAAISIAGSTNYADSVKGRFTISRDNAKNTVYLQMNSLKPEDTAVYYCAKEYRWGQSQLDYWGQGTQVTVSS,low polyreactivity
17,QVQLVESGGGLVQAGGSLRVSCAASGFTFHKYAMGWYRQAPGKDRELVAVISQSASSTYYADSVKGRFTISRDNAKNTVYFQMNGLKPEDTAVYYCNAKYYRYNRRNYWGQGTQVTVSS,high polyreactivity
18,QVQLVESGGGLVQAGGSLRLSCAASGRIFYSYAMGWYRQAPGKERELVAAITVSGGSTFYADSVKGRFTISRDNAKNTVYLQMNSLKPEDTAVYYCAATRFSQYDWGQGTQVTVSS,high polyreactivity
19,QLQLVESGGGLVQAGGSLSLSCAASGRTVYGYSMGWYRQAPGKERELVAAISKTGGSTYYADSVKGRFTISRDNAKNTVYLQMNSLKPEDTAVYYCNARDTSGFTRFSSKYDYWGQGTQVTVSS,high polyreactivity
20,QVQLVESGGGLVQAGGSLRLSCADSGSTFYGNVMGWYRQAPGKERELVAAITRGGTTNYADSVKGRFTISRDNAKNTVYLQMNSLKPEDTAVYYCAKASYWVQASNDYWGQGTQVTVSS,low polyreactivity
21,QVQLVESGGGLVQAGGSLRLIFAASGSIFNRYTMGWYRQAPGKERELVADISKSGTRTYYADSVKGRFTISRDNAKNTVYLQMNSLKPEDTAVYYCAKSSVAVYQTRYDYWGQGTQVTVSS,high polyreactivity
22,QVQLVESGGGLVQAGGSLRLSCAASGSIFGGYAMGGYRQAPGKERELVAAISWSGDSTYYADSVKGRFTISRDNANNTDYLQMNSLKPEDTAVYYCAAYYLAWYAFRYKTVGSAMDYWGQGTQVTVSS,low polyreactivity

row,Sequence,polyreactivity (PSR sort gate)
1,QVQLVESGGGLVQAGGSLRLSCAACGRILWTYAMGLYRQAPGKERELVADISRTGSTNYADSVKGRFTISRDNAKNTVYLQMNSLKPEDTAVYYCAADRWAHTHRLGYWGQGTQVTVSS,low polyreactivity
2,QVQLVDTGGGLVQAGGILRIRCAASGRIFHGNSMVCYRQAPGKERELVAAITWGGTRTYYSDSVKGRFTISRDNAKNTVYLQMNSLKPEDTAVYYCATDYGYTDRVTSGFDYWGQGNQVTVSS,low polyreactivity
3,QVQHVESGGGLVQAGGSLRLSCAASGSTFRFYDMGWYRQSPGKERELVATISSSGGTTYYADSVKGRFTISRDNAKNTVYLQMNSLKPEDTAVYYCNKYYGGRYRQYAYGYWGQGTQVTVSS,high polyreactivity
4,QVQLVESGGGLVQAGGSLRISCAASGFSFRYYAMGWYRQAPGKERELVAAISGSGGSTYYADSVKGRFTISRDNAKNTVYLQMNSLKPEDTAVYYCARYYTYREYDYWGQATQVTVSS,high polyreactivity
5,QVQLVESGGGLVQAGGSLRLSCAASGGTFRYYALGWYRQAPGKERALVAAISSGGSTNYADSVKGRFTISRDNAKNTVYLQMNSLKPEDTAVYYCAADVIYYYAYYTYDYWGQGTQVTVSS,low polyreactivity
6,QVQLVESGGGLVQAGGSLRLSCAASGSIFRSYAMGWYRQAPGKERELVAGITSSGGSTYADSVKGRFTISRDNAKNTVYLQMNSLKPEDTAVYFCAKPGFEWLLTRLFSVSEYDYWGQGTQVTVSS,low polyreactivity
7,QVQLVESGGGLVQAGGSLRLSCAASGRTFPYYAMGWYRQAPGKERELVAAISSSGGRTYYADSVKGRFTISRDNAKNTVYLQMISLKPEDSAVYDCNVDAWYPYQGFLVGYYYWGQGTQVTVSS,low polyreactivity
8,QVQHVESGGVLVQARGSLRLTCAASGSTFIRNAMGWYRQAPGKERELVAAISASGGRSYYADSVKGRFTFSRDNAKTSVYCQLNSLKSEDTAVYYFAARNARYVHTMVFWGQGTQVTVSS,high polyreactivity
9,QVQLVESGGGLVQAGGSLRLSCAASGAIFESNAMGWYRQAPGKEREFVAAIDQNDGSSNYADSVKGRFTISRDNAKNTVYLQMNSLKPEDSAVYYCAAEVPGYWYLDYEYWGHGTQVTVSS,low polyreactivity
10,QVQLVDSGGGLVQARGTLRLSCAASGSTFRVYAMGWYRQAPGKEMELVAAISSSGGITYYADSVKGRFPISRDNAKNSVYLQMNSLKPEDTEVYYCAKGTVIHVLYDYWGQGTQVTVSS,low polyreactivity
11,QVQLVESGGGLVQAGGSLRLSCAASGSIFYRNAMGWYRQAPGKERELVAAISWSGSRTYYADSVKGRFTISRDNAKNTVYLQMNSLKPEDTAVYYCNRQYNQWIHYYYRMDYWGQGTQVTVSS,high polyreactivity
12,QVQLVESGGGLVQAGGSLRLSCAASGRIFDRYAMGWYRQAPGKERELVAAITSSGGRTYYADSVKGRFTISRDNAKNTVYLQMYSLKPEDTAVYYCAARWYGGYNYWGQGTQVTVSS,high polyreactivity
13,QVQLVESVGGLVQAGGSLRLSCAASGFIVSTYAMGWYRQAPGKERELVAAITNSGGSTYYADSVKGRFTISRDNAKNTVYLQMNSLKPEDTAVYYCARRRSYRDNYWGQGTQVTVSS,high polyreactivity
14,QVQLVESGGGLVQAGGSLRLSCAASGITFFYNAMGWSRQAPGKERELVADITNSGSTYYADSVKVRFTISRDNAKNTVYLQMNSLKPEDTAVYDCAAGQAYDFFVYYPDDYWGQGTQVTVSS,low polyreactivity
15,QVQLVESGGGLVQAGGSLRLSCAASGRTFYSNAMGWYRQAPGKERELVATITRRGGSTYYADSVKGRFTISRDNAKNTVYLQMNSLKPEDTAVYYCNAVSSKGNPYYYWGQGTQVTVSS,high polyreactivity
16,QVQLVESGGGLFQAGGSLSLSCAASGRTLWLYTKRWYTQAPGKEWELVARIRSGGSTYYADSVKGRFTISRDNAKNTVYLQMNSLKPEDTAVYYCAVGSRYYGRGYYYWGQGTQVTVSW,high polyreactivity
17,QVQLVESGGGLVQAGGSLRLSCPASGSTLAWYTMGWYRQAPGKEREFVAVITGSGGSTFYADSVKGRFTISRDNAKNTVYLQMNSLKPEDTAVYYCAADYLYYVTQHRRFHLDYWGQGTQVTVSS,low polyreactivity
18,QVQLVESGGGLVHAGGSLRLSCAASGIIFSWYAMGWYRQAPGKERELVAAITSDGNTYYADSVKGRFTISRDNAKNTVYLQMNSLKPEDTAVYYCIARTYVRRPLGYWGQGWQVTVSS,high polyreactivity
19,QVQLQESGGGLMQAGGSQRLSCAASGSISYYSDMAWYRQAPGKEREFVAGIGYGTSTNYADSVKGRFTTSRDNAKNTVYLQMISMKPEDTAVYYCAAYQGNGYEFYYWGQGTQVTVRS,low polyreactivity
20,QVQLVESGGGLVQAGGSLRLSCAASGRIFQYYAMGWYRQAPGKERELVAAIDQSGDTTYYADSVKGRFTISRDNAKNTVYLQMNSLKPEDTAVYYCAAGYDWAYHWVPQWMYYWGQGTQVTVSS,low polyreactivity
21,QVQLVESGGGLVQAGGSLRLSCAASGRIFYSNAMGWYRQAPGKERELVAAISGSTDSTYYADSVKGRFTISRDNAKNTVYLQMNSLKPEDTAVYYCAAADYWFYYGYYLTMDYWGQGTQVTVSS,low polyreactivity
